US20090325262A1, “Immobilization of biological molecules onto surfaces coated with monolayers” (SURFACE LOGIX, INC., priority 2001, published 2009)

Legend:
[1] = test system: CCCC(=O)Oc1ccc([N+](=O)[O-])cc1; test: purified protein, by the assay type; details: other: substrate of recombinant cutinase; release of PNP followed by absorbance
Protocol: The cutinase concentration was 1 M. The release of PNP was followed using absorbance spectroscopy.
Spectrophotometric measurement was performed at room temperature using BECKMAN DU-640 spectrophotometer (BECKMAN COULTER, INC., Fullerton, Calif.). Esterase activity of purified recombinant cutinase was measured by monitoring p-nitrophenol butyrate (PNB) hydrolysis rates at 410 nm (=8,800 M-1 cm-1) in buffer A.

[2] = target: biotin-NH-Arg-Asp-Cys-CONH2; test: SPR, fibrinogen (0.5 mg/mL) flowed over 2% maleimide SAM treated with the peptide; FIG. 4
[3] = target: biotin-NH-Arg-Asp-Cys-CONH2; test: SPR (Biacore 3000), streptavidin flowed over 2% maleimide SAM treated with the peptide (1.2 mM, 12 min); FIG. 3 sensorgram A

Q: cutinase (Fusarium vanettenii) was tested. Which Km [1] did it give?
A: 1000 µM

Q: For fibrinogen, which SPR response (RU) [2] is on record?
A: 60 RU

Q: “streptavidin (from UniProt P22629 37-163)” was tested. Which SPR response (RU) [3] did it give?
A: 2280 RU
